# Data as given in patent publication US20210363269A1 (ALX ONCOLOGY, published 2021).
# T1: cynomolgus SIRP-α D1 domain (SEQ ID NO:11) (cynomolgus, UniProt Q5TFQ8 30-148 (human entry), limits assumed)
# T1 construct: also called cyno1
# T1 chain: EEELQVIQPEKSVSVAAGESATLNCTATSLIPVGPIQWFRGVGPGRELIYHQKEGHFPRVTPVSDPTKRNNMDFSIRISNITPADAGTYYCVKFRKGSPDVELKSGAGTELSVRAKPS
# How the values were obtained:
# Assay in all cases: SPR, antibody immobilised on GLC chip
# [1] = molecular target: T2, human SIRP-α v2 D1 domain (human)
# T2 construct: biotinylated and captured on avidin in the ELISA; also called human v2
# Method in brief: (§1)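 SIRP analytes were run over antibody surfaces in PBS pH 7.4 with 0.01% Tween-20 at 25° C, using one-shot injections at 100, 33, 11, 3.7, 1.2 and 0 nM. The antibodies, purified by Protein A, had been amine-coupled (~1000 RU) to a GLC chip of a ProteOn XPR36 biosensor from an 80 nM solution in 10 mM sodium acetate pH 4.5. Association lasted 90 s at a flow of 100 μL/min, and dissociation lasted 1200 s. KD equals kd/ka, obtained by fitting double-referenced data globally to a Langmuir model.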
# [2] = molecular target: T3, human SIRP-α v1 D1 domain (human, UniProt P78324 31-149)
# T3 construct: biotinylated and captured on avidin in the ELISA; also called human v1
# Method in brief: as §1
# T3 sequence (P78324 31-149 limits assumed): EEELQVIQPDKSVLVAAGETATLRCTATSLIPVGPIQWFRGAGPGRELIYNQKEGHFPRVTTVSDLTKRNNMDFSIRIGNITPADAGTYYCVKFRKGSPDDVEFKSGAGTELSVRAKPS
# [3] = molecular target: T1, cynomolgus SIRP-α D1 domain (SEQ ID …)
# Procedure: (§2) All experiments were performed at 25° C. using a SPR-based ProteOn XPR36 biosensor (BioRad, Inc, Hercules, Calif.) equipped with GLC or NLC sensor chips. […] Purification was carried out by standard Protein A affinity column chromatography and eluted antibodies were stored in PBS buffer.
# (§3) For the method using GLC chip, the analytes were injected and flowed over anti-SIRPα antibodies immobilized (˜1000 RUs) on GLC chips using Proteon™ Amine Coupling Kit. For the immobilization step, GLC chip was activated with EDAC/Sulpho-NHS 1:1 (Biorad) diluted 1/100 for 300 s at 25 μL/min. Anti-SIRPα antibodies were diluted to 80 nM concentration in 10 mM sodium acetate buffer pH 4.5 and immobilized to the chip at 30 μL/min for 50 s. Chip was inactivated with ethanolamine for 300 s at 25 μL/min. The analytes (e.g., SIRP-α from different species, SIRP-β, SIRP-γ) were injected in a “one-shot” kinetic mode at nominal concentrations of 100, 33, 11, 3.7, 1.2 and 0 nM. Association times were monitored for 90 s at 100 μL/min, and dissociation times were monitored for 1200 s. The surfaces were regenerated with a 2:1 v/v blend of Pierce IgG elution buffer/4M NaCl.
# human SIRPγ isoform 1 = molecular target: T4, human SIRPγ isoform 1 (human, UniProt Q9P1W8 29-147)
# T4 construct: also called sirpg; sirp-g
# T4 sequence (Q9P1W8 29-147 limits assumed): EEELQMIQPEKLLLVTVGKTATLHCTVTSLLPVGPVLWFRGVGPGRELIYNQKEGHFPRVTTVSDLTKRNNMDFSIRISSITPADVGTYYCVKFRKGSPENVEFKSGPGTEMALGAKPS
# Procedure: as §2, §3
# [4] = molecular target: T5, human SIRP-α v1 D1 domain (human, UniProt P78324 31-149)
# T5 construct: also called human v1; human α v1
# Procedure: as §2, §3
# T5 sequence (P78324 31-149 limits assumed): as the sequence (P78324 31-149 limits assumed) above
# [5] = molecular target: T6, human SIRP-α v2 D1 domain (human)
# T6 construct: also called human v2; human α v2
# Procedure: as §2, §3
# T6 sequence (chain, as listed by the source limits assumed): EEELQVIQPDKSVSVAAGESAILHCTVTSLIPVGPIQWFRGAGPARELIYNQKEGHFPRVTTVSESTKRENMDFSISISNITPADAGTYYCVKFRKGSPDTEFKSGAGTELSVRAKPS
Binder,binding result [1],binding result [2],Kd [3] [nM],Kd (human SIRPγ isoform 1) [nM],Kd [4] [nM],Kd [5] [nM]
"119 wt/wt_M34V (antibody, human IgG1, V domains shown, human IgG1 with L234A, L235A, G237A, N297A) VH: DVQLLESGGGVVQPGGSLRLSCAASGFSFSNFAVTWVRQAPGEGLEWVSTIGSGDTYYADSVKGRFTISRDNSKNTLYLQMNSLRAEDTAVYYCAKDSTVSWSGDFFDYWGLGTLVTVSS VL: EIVLTQSPATLSVSPGERATFSCRASQNVKNDLAWYQQRPGQAPRLLIYAARIRETGIPERFSGSGSGTEFTLTITSLQSEDFAVYYCQQYYDWPPFTFGGGTKVEIK",binds,binds,–,–,–,–
"antibody 135 variant mut/wt (antibody, human IgG1, V domains shown, Human IgG1 with L234A/L235A/G237A/N297A; Labels are in the order VL/VH) VH: DVQLVESGGGVVRPGESLRLSCAASGFSFSIYAMSWVRQAPGEGLEWVSTIGADDTYYADSVKGRFTISRDNSKNTLYLQMNSLRAEDTAVYYCAKDSTVGWSGDFFDYWGLGTLVTVSS VL: EIVLTQSPATLSVSPGERVTLSCRASQNVRSDIAWYQQKPGQAPRLLIYAASSRDTGIPARFSGSGSGTDFTLTISSLQSEDFGVYYCQQYYDWPPFTFGGGTKVEIK",–,–,0.102,0.522,0.149,0.0266
"119 wt/wt_M34L (antibody, human IgG1, V domains shown, human IgG1 with L234A, L235A, G237A, N297A) VH: DVQLLESGGGVVQPGGSLRLSCAASGFSFSNFALTWVRQAPGEGLEWVSTIGSGDTYYADSVKGRFTISRDNSKNTLYLQMNSLRAEDTAVYYCAKDSTVSWSGDFFDYWGLGTLVTVSS VL: EIVLTQSPATLSVSPGERATFSCRASQNVKNDLAWYQQRPGQAPRLLIYAARIRETGIPERFSGSGSGTEFTLTITSLQSEDFAVYYCQQYYDWPPFTFGGGTKVEIK",binds,binds,–,–,–,–

# Results, then the binder that gave them:
binding result [1],binding result [2],Kd [3] [nM],Kd (human SIRPγ isoform 1) [nM],Kd [4] [nM],Kd [5] [nM],Binder
–,–,0.125,0.779,0.184,0.0197,"antibody 135 variant wt/mut (antibody, human IgG1, V domains shown, Human IgG1 with L234A/L235A/G237A/N297A; Labels are in the order VL/VH) VH: EVQLVESGGGVVQPGGSLRLSCAASGFSFSIYAVSWVRQAPGKGLEWVSTIGADDTYYADSVKGRFTISRDNSKNTLYLQMNSLRAEDTAVYYCAKDSTVGWSGDFFDYWGQGTLVTVSS VL: EIVLTQSPATLSVSPGERVTFSCRASQNVRSDIAWYQQKPGQAPRLLIYAASSRDTGIPDRFSGSGSGTDFTLTISSLQSEDFGVYYCQQYYDWPPFTFGGGTKVEIK"
–,–,0.0969,0.539,0.151,0.029,"antibody 135 wt/wt (parental) (antibody, human IgG1, V domains shown, Human IgG1 with L234A/L235A/G237A/N297A; Labels are in the order VL/VH; also called AB135a) VH: DVQLVESGGGVVRPGESLRLSCAASGFSFSIYAMSWVRQAPGEGLEWVSTIGADDTYYADSVKGRFTISRDNSKNTLYLQMNSLRAEDTAVYYCAKDSTVGWSGDFFDYWGLGTLVTVSS VL: EIVLTQSPATLSVSPGERVTFSCRASQNVRSDIAWYQQKPGQAPRLLIYAASSRDTGIPDRFSGSGSGTDFTLTISSLQSEDFGVYYCQQYYDWPPFTFGGGTKVEIK"
